In patent US20200062844A1:

Tests used:
[1] = target: human CD3 expressed in Jurkat cells (human) (UniProt P07766); assay: flow cytometry, 70 nM antibody on Jurkat/NFAT-luc cells, No IgE
[2] = target: human CD3 expressed in Jurkat cells (human) (UniProt P07766); assay: cell-based or functional assay
[3] = target: human FcεR1α expressed on cells (human) (UniProt P12319); assay: flow cytometry, 70 nM antibody on HEK293/hFcεR1α/hFcεR1β/hFcεR1γ cells, No IgE
[4] = target: human FcεR1α expressed on cells (human) (UniProt P12319); assay: flow cytometry, 70 nM antibody on HEK293/hFcεR1α/hFcεR1β/hFcεR1γ cells pre-incubated with 70 nM human IgE
[5] = target: monkey (cynomolgus) FcεR1α expressed on cells (cynomolgus); assay: flow cytometry, 70 nM antibody on HEK293/mfFcεR1α/hFcεR1β/hFcεR1γ cells pre-incubated with 70 nM human IgE
[6] = target: monkey (cynomolgus) FcεR1α expressed on cells (cynomolgus); assay: flow cytometry, 70 nM antibody on HEK293/mfFcεR1α/hFcεR1β/hFcεR1γ cells, No IgE
[7] = target: mfFcεR1α.MMH (cynomolgus (Macaca fascicularis)); assay: SPR (Biacore 8k), antibody captured on anti-human Fc, mfFcεR1α.MMH injected, 25°C
Chain of mfFcεR1α.MMH (cynomolgus (Macaca fascicularis)) (chain, as listed by the source limits assumed): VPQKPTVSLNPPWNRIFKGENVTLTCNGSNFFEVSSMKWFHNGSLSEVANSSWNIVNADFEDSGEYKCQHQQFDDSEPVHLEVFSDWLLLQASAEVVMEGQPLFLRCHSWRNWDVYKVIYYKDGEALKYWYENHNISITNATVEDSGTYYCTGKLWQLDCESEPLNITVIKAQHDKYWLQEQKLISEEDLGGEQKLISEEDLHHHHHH

[8] = target: mfFcεR1α.MMH (cynomolgus (Macaca fascicularis)); assay: SPR (Biacore 8k), antibody captured on anti-human Fc, mfFcεR1α.MMH injected, 37°C
hFcεR1α.MMH (human) [9] = assay: SPR (Biacore 8k), antibody captured on anti-human Fc, hFcεR1α.MMH injected, 25°C
Chain of hFcεR1α.MMH (human) (chain, as listed by the source limits assumed): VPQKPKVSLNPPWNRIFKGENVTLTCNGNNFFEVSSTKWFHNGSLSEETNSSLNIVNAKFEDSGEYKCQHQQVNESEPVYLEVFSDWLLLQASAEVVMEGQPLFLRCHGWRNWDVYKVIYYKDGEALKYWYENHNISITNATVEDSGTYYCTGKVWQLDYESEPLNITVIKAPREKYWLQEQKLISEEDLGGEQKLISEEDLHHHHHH

hFcεR1α.MMH (human) [10] = assay: SPR (Biacore 8k), antibody captured on anti-human Fc, hFcεR1α.MMH injected, 37°C

Chain of human FcεR1α expressed on cells (human) (P12319 26-257): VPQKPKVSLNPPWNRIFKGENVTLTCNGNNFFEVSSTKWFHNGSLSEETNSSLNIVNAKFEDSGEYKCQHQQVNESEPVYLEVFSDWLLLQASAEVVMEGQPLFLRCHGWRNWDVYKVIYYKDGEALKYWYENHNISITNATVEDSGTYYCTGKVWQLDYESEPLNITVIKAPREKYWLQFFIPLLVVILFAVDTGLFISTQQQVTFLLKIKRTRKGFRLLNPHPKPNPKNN
Chain of human CD3 expressed in Jurkat cells (human) (P07766 23-207 limits assumed, chain 1 of 4): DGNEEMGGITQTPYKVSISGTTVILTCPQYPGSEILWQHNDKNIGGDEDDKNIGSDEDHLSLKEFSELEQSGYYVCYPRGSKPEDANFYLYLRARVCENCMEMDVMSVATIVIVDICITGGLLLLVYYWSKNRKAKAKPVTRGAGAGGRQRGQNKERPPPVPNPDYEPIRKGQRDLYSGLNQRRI
Chain of human CD3 expressed in Jurkat cells (human) (chain, as listed by the source limits assumed, chain 2 of 4): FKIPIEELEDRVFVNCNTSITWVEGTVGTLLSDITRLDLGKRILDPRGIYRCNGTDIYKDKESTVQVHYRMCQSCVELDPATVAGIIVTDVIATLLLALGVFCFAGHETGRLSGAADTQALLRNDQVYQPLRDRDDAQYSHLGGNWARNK
Chain of human CD3 expressed in Jurkat cells (human) (chain, as listed by the source limits assumed, chain 3 of 4): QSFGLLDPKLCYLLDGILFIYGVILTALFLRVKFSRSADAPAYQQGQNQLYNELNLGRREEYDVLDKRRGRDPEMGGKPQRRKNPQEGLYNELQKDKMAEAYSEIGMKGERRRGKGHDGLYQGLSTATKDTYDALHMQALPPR
Chain of human CD3 expressed in Jurkat cells (human) (chain, as listed by the source limits assumed, chain 4 of 4): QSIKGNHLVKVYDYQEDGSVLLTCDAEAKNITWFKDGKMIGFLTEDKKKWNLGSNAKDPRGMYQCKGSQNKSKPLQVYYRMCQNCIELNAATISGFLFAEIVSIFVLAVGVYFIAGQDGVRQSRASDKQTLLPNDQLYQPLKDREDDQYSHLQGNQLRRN

Binding Ratio (MFI of Treated/MFI of Unstained) [1]	Fold Activation, Jurkat/NFAT-luc with HEK293/hFcεR1α/hFcεR1β/hFcεR1γ cells, 10 nM IgE [2]	Fold Activation, Jurkat/NFAT-luc with HEK293/hFcεR1α/hFcεR1β/hFcεR1γ cells, No IgE [2]	Binding Ratio (MFI of Treated/MFI of Unstained) [3]	Binding Ratio (MFI of Treated/MFI of Unstained) [4]	Binding Ratio (MFI of Treated/MFI of Unstained) [5]	Binding Ratio (MFI of Treated/MFI of Unstained) [6]	600 nM mfFceR1a.MMH Bound (RU) [7]	600 nM mfFceR1a.MMH Bound (RU) [8]	600 nM hFcεR1α.MMH Bound (RU) (hFcεR1α.MMH (human) [9])	600 nM hFcεR1α.MMH Bound (RU) (hFcεR1α.MMH (human) [10])	Substance
1	1 fold	1 fold	1	1	1	1					Human IgG4 Control (antibody)
2	1 fold	1 fold	1	1	1	1					Human IgG4 Stealth Control (antibody)
							-9 RU	-9 RU	-5 RU	-2 RU	Isotype Control mAb (antibody)
